From the supplement of paper PMC10567573

B1: APBB1IP (parent)
chain: FNYSVGFKDLNESLNALEDQDLDA
B2: NP_015628.1 (parent)
chain: EQRNSRWNTVLRAVKAKTHHLEP

Variants of: B1
Test: protein stability index of a GFP-peptide fusion (GPS, HEK-293T) (PSI 1-6); higher = more stable
Conditions: c terminus: a fixed tail appended

Protein stability index of substitutions, site by site:
F1: M 5.31 | R 5.42 | Q 5.38 | Y 4.91 | T 5.35 | I 4.43 | L 4.7 | H 5.05 | V 4.66 | N 5.51 | A 5 | C 4.79 | W 4.53 | E 5.53 | P 5.21 | G 4.72 | D 5.74
D9: I 2.49 | V 2.67 | C 3.13 | R 4.05 | G 4.39 | H 4.08 | F 3.52 | L 3.09 | E 4.25 | S 3.45 | M 3.86 | P 4.15 | T 4.2 | Q 4.22 | W 2.7 | Y 3.44 | N 4.31 | K 4.19 | A 3.99

Variants of: B2
Test: as above
Conditions: c terminus: native

Protein stability index, by site and new letter:
L21: Q 4.55 | E 4.79 | D 4.04 | Y 3.81 | N 4.59 | W 4.04 | T 4.26 | H 4.16 | P 4.27 | V 4.29 | I 3.59 | K 4.92 | M 3.01 | R 2.08 | F 3.82 | A 4.09 | G 3.67
K17: N 2.69 | S 2.85 | E 2.77 | L 2.62 | P 2.96 | F 2.75 | M 2.91 | T 2.84 | A 2.77 | Y 2.82 | D 3.1 | Q 2.67 | C 2.61 | H 2.52 | R 3.33 | I 2.61 | W 2.62 | V 2.79
P23: M 4.09 | L 4.39 | T 4.13 | I 4.19 | H 4.88 | V 4.13 | G 4.74 | Q 5.08 | K 5.17 | D 4.92 | F 4.51 | R 3.9 | N 4.98 | E 3.95 | A 4.32 | Y 4.4
E22: F 3.55 | C 2.63 | H 3.45 | K 4.85 | L 3.02 | R 2.26 | A 2.87 | T 3.23 | S 3.09 | I 2.45 | P 4.21 | Y 3.91 | D 3.21 | W 3.6 | M 2.84 | V 3.49 | Q 3.28 | N 4.48 | G 3.09
H19: I 3.44 | V 3.31 | F 3.66 | W 3.54 | Y 3.07 | R 2.96 | P 2.65 | E 3.75 | M 3.37 | L 3.43 | T 3.74 | A 3.34 | N 3.56 | K 3.57 | G 3.86 | D 3.81 | Q 3.73
A16: Q 2.99 | R 2.77 | V 2.95 | S 3.24 | P 2.78 | Y 2.78 | T 2.78 | W 2.92
H20: L 3.6 | I 3.15 | S 2.66 | V 3.46 | P 3.89 | W 3.46 | Y 3.25 | T 3.27 | C 2.23 | A 2.81 | N 3.47 | F 3.22 | K 4.01 | D 3.09 | Q 2.89 | E 3.19 | G 1.9
T18: D 3.14 | G 3.12 | F 3.33 | M 2.83 | Q 3.34 | K 2.97 | I 3.12 | C 2.5 | H 2.76 | R 3.11 | P 2.93 | Y 2.84 | S 2.29 | N 2.82 | W 3.57 | V 3.12 | E 3.26 | L 3.13 | A 2.91
